Measurements taken from publication PMC9482650, “Quantitative fragmentomics allow affinity mapping of interactomes” (Nature Communications, 2022).

T1: ARHGEF11, O15085
T1 sequence (O15085 42-136, limits assumed, looked up): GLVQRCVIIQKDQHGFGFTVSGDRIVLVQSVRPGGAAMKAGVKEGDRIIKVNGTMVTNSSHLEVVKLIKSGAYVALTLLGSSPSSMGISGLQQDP

T2: SNTG1, Q9NSN8
T2 sequence (Q9NSN8 52-150, limits assumed, looked up): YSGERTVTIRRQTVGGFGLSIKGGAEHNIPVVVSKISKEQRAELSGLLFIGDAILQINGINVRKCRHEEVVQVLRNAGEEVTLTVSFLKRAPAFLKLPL

T3: APBA3_1, O96018
T3 sequence (O96018 389-490, limits assumed, looked up): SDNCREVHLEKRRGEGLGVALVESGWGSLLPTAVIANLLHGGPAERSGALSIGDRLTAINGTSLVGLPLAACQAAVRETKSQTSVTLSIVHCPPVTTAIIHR

T4: TX1BP3, O14907
T4 sequence (O14907 10-122, limits assumed, looked up): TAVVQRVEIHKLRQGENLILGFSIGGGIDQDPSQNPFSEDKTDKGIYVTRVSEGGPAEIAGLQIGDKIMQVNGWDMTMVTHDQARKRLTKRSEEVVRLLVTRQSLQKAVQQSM

T5: PDZD7_3, Q9H5P4
T5 sequence (Q9H5P4 857-944, limits assumed, looked up): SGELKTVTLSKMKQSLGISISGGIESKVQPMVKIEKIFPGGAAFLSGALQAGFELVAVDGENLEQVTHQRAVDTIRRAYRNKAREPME

T6: TJP3_3, O95049
T6 sequence (O95049 375-456, limits assumed, looked up): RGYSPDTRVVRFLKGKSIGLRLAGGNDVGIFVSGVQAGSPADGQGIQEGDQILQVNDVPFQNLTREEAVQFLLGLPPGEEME

T7: APBA2_1, Q99767
T7 sequence (Q99767 563-664, limits assumed, looked up): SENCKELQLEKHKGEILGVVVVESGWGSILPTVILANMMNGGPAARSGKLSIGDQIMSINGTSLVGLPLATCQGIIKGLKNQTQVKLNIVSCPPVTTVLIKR

T8: SNTA1, Q13424
T8 sequence (Q13424 82-180, limits assumed, looked up): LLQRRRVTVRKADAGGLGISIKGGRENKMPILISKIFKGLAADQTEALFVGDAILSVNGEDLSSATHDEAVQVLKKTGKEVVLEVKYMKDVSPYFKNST

T9: CARD11, Q9BXL7
T9 sequence (Q9BXL7 662-765, limits assumed, looked up): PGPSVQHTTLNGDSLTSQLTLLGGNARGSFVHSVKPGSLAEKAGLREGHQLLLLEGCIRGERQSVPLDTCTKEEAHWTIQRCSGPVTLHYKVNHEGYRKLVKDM

T10: MPP7, Q5T2T1
T10 sequence (Q5T2T1 134-230, limits assumed, looked up): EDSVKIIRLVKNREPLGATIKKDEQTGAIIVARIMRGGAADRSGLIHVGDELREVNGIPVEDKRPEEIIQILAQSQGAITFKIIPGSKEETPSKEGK

T11: HTRA3, P83110
T11 sequence (P83110 354-453, limits assumed, looked up): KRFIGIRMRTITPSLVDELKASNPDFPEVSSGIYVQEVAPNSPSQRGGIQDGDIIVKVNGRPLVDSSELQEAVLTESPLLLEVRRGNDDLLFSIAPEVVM

T12: MPP6, Q9NZW5
T12 sequence (Q9NZW5 125-219, limits assumed, looked up): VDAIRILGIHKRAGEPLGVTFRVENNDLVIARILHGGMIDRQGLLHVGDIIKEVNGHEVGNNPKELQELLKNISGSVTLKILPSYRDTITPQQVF

T13: FRMPD1, Q5SYB0
T13 sequence (Q5SYB0 52-145, limits assumed, looked up): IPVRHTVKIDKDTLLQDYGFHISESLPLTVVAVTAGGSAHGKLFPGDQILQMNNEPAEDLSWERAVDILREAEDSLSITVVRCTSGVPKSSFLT

T14: NHERF3_4, Q5T2W1
T14 sequence (Q5T2W1 373-468, limits assumed, looked up): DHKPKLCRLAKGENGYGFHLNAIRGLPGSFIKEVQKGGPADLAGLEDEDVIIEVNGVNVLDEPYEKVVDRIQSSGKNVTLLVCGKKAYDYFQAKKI

T15: RHPN1, Q8TCX5
T15 sequence (Q8TCX5 508-602, limits assumed, looked up): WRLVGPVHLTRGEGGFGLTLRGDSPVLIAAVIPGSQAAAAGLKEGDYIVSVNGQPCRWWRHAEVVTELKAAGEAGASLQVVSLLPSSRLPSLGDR

B1: PRR16, Q569H4 (peptide)
chain: ILRKSTTTTV
B2: KARS1, Q15046 (peptide)
chain: LESTTVGTSV
B3: NCF1, P14598 (peptide)
chain: STKRKLASAV

Biological target: T1, ARHGEF11, O15085
Experiment: holdup assay
Design: key: below the threshold = too weak to quantify, mostly under pKd 3.1 to 4
Conditions: plain residues with an end cap or a label only (N-terminal biotin on a linker: ado-ado)

Binder | pKd
B1 | 4.04
B2 | 4.04
B3 | 3.74

Biological target: T2, SNTG1, Q9NSN8
Experiment: holdup assay
Design: key: below the threshold = too weak to quantify, mostly under pKd 3.1 to 4
Conditions: plain residues with an end cap or a label only (N-terminal biotin on a linker: ado-ado)

Binder | pKd
B1 | 3.49
B2 | 3.7
B3 | below the threshold

Biological target: TJP1_2, Q07157
Sequence (Q07157 181-274): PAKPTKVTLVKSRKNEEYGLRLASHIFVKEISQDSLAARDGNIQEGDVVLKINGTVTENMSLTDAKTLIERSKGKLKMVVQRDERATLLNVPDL
Experiment: holdup assay
Design: key: below the threshold = too weak to quantify, mostly under pKd 3.1 to 4
Conditions: plain residues with an end cap or a label only (N-terminal biotin on a linker: ado-ado)

Binder | pKd
B1 | below the threshold
B2 | below the threshold
B3 | below the threshold

Biological target: T3, APBA3_1, O96018
Experiment: holdup assay
Design: key: below the threshold = too weak to quantify, mostly under pKd 3.1 to 4
Conditions: plain residues with an end cap or a label only (N-terminal biotin on a linker: ado-ado)

Binder | pKd
B1 | below the threshold
B2 | below the threshold
B3 | below the threshold

Biological target: T4, TX1BP3, O14907
Experiment: holdup assay
Design: key: below the threshold = too weak to quantify, mostly under pKd 3.1 to 4
Conditions: plain residues with an end cap or a label only (N-terminal biotin on a linker: ado-ado)

Binder | pKd
B1 | 3.66
B2 | 3.6
B3 | 3.72

Biological target: CASK, O14936
Sequence (O14936 487-570): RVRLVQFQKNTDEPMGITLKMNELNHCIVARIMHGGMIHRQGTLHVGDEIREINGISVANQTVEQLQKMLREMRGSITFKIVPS
Experiment: holdup assay
Design: key: below the threshold = too weak to quantify, mostly under pKd 3.1 to 4
Conditions: plain residues with an end cap or a label only (N-terminal biotin on a linker: ado-ado)

Binder | pKd
B1 | below the threshold
B2 | below the threshold
B3 | below the threshold

Biological target: T5, PDZD7_3, Q9H5P4
Experiment: holdup assay
Design: key: below the threshold = too weak to quantify, mostly under pKd 3.1 to 4
Conditions: plain residues with an end cap or a label only (N-terminal biotin on a linker: ado-ado)

Binder | pKd
B1 | 4.67
B2 | 3.82
B3 | below the threshold

Biological target: T6, TJP3_3, O95049
Experiment: holdup assay
Design: key: below the threshold = too weak to quantify, mostly under pKd 3.1 to 4
Conditions: plain residues with an end cap or a label only (N-terminal biotin on a linker: ado-ado)

Binder | pKd
B1 | below the threshold
B2 | below the threshold
B3 | below the threshold

Biological target: T7, APBA2_1, Q99767
Experiment: holdup assay
Design: key: below the threshold = too weak to quantify, mostly under pKd 3.1 to 4
Conditions: plain residues with an end cap or a label only (N-terminal biotin on a linker: ado-ado)

Binder | pKd
B1 | below the threshold
B2 | below the threshold
B3 | below the threshold

Biological target: T8, SNTA1, Q13424
Experiment: holdup assay
Design: key: below the threshold = too weak to quantify, mostly under pKd 3.1 to 4
Conditions: plain residues with an end cap or a label only (N-terminal biotin on a linker: ado-ado)

Binder | pKd
B1 | 3.92
B2 | below the threshold
B3 | below the threshold

Biological target: GRIP2_7, Q9C0E4
Sequence (Q9C0E4 934-1023): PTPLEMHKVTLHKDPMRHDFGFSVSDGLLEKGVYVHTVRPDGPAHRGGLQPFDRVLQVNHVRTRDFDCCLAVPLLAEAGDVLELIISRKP
Experiment: holdup assay
Design: key: below the threshold = too weak to quantify, mostly under pKd 3.1 to 4
Conditions: plain residues with an end cap or a label only (N-terminal biotin on a linker: ado-ado)

Binder | pKd
B1 | below the threshold
B2 | below the threshold
B3 | below the threshold

Biological target: T9, CARD11, Q9BXL7
Experiment: holdup assay
Design: key: below the threshold = too weak to quantify, mostly under pKd 3.1 to 4
Conditions: plain residues with an end cap or a label only (N-terminal biotin on a linker: ado-ado)

Binder | pKd
B1 | below the threshold
B2 | below the threshold
B3 | below the threshold

Biological target: T10, MPP7, Q5T2T1
Experiment: holdup assay
Design: key: below the threshold = too weak to quantify, mostly under pKd 3.1 to 4
Conditions: plain residues with an end cap or a label only (N-terminal biotin on a linker: ado-ado)

Binder | pKd
B1 | below the threshold
B2 | below the threshold
B3 | below the threshold

Biological target: T11, HTRA3, P83110
Experiment: holdup assay
Design: key: below the threshold = too weak to quantify, mostly under pKd 3.1 to 4
Conditions: plain residues with an end cap or a label only (N-terminal biotin on a linker: ado-ado)

Binder | pKd
B1 | below the threshold
B2 | below the threshold
B3 | below the threshold

Biological target: MAGI1_1, Q96QZ7
Sequence (Q96QZ7 1-106): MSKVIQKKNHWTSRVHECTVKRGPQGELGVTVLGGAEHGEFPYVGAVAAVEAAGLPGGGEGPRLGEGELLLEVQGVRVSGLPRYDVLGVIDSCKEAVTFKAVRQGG
Experiment: holdup assay
Design: key: below the threshold = too weak to quantify, mostly under pKd 3.1 to 4
Conditions: plain residues with an end cap or a label only (N-terminal biotin on a linker: ado-ado)

Binder | pKd
B1 | below the threshold
B2 | 3.5
B3 | below the threshold

Biological target: GRIP2_4, Q9C0E4
Sequence (Q9C0E4 446-548): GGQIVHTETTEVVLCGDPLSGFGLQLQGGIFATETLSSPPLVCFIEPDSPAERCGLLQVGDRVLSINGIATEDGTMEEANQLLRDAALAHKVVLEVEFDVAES
Experiment: holdup assay
Design: key: below the threshold = too weak to quantify, mostly under pKd 3.1 to 4
Conditions: plain residues with an end cap or a label only (N-terminal biotin on a linker: ado-ado)

Binder | pKd
B1 | below the threshold
B2 | below the threshold
B3 | below the threshold

Biological target: T12, MPP6, Q9NZW5
Experiment: holdup assay
Design: key: below the threshold = too weak to quantify, mostly under pKd 3.1 to 4
Conditions: plain residues with an end cap or a label only (N-terminal biotin on a linker: ado-ado)

Binder | pKd
B1 | below the threshold
B2 | below the threshold
B3 | below the threshold

Biological target: T13, FRMPD1, Q5SYB0
Experiment: holdup assay
Design: key: below the threshold = too weak to quantify, mostly under pKd 3.1 to 4
Conditions: plain residues with an end cap or a label only (N-terminal biotin on a linker: ado-ado)

Binder | pKd
B1 | below the threshold
B2 | below the threshold
B3 | below the threshold

Biological target: T14, NHERF3_4, Q5T2W1
Experiment: holdup assay
Design: key: below the threshold = too weak to quantify, mostly under pKd 3.1 to 4
Conditions: plain residues with an end cap or a label only (N-terminal biotin on a linker: ado-ado)

Binder | pKd
B1 | below the threshold
B2 | below the threshold
B3 | below the threshold

Biological target: T15, RHPN1, Q8TCX5
Experiment: holdup assay
Design: key: below the threshold = too weak to quantify, mostly under pKd 3.1 to 4
Conditions: plain residues with an end cap or a label only (N-terminal biotin on a linker: ado-ado)

Binder | pKd
B1 | 4.01
B2 | 4.07
B3 | below the threshold

Biological target: MAGI2_6, Q86UL8
Sequence (Q86UL8 1141-1229): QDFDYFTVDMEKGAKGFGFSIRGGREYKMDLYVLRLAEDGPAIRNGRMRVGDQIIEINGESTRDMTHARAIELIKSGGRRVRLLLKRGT
Experiment: holdup assay
Design: key: below the threshold = too weak to quantify, mostly under pKd 3.1 to 4
Conditions: plain residues with an end cap or a label only (N-terminal biotin on a linker: ado-ado)

Binder | pKd
B1 | below the threshold
B2 | 4.32
B3 | below the threshold

Biological target: FRMPD2_1, Q68DX3
Sequence (Q68DX3 770-861): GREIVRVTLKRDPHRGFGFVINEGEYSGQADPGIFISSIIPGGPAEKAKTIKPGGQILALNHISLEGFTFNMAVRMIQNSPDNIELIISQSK
Experiment: holdup assay
Design: key: below the threshold = too weak to quantify, mostly under pKd 3.1 to 4
Conditions: plain residues with an end cap or a label only (N-terminal biotin on a linker: ado-ado)

Binder | pKd
B1 | below the threshold
B2 | below the threshold
B3 | below the threshold
